Experimental data reported in US7727950B2, “Methods and reagents for assaying protein kinase activity” (The University of Dundee, priority 2002, dated 2010).

Key:
Assay in all cases: Kinetic parameters for peptide phosphorylation, radioactive filter-binding assay
[1] = substrate: CC(C)C[C@H](NC(=O)[C@@H](NC(=O)[C@H](CCCNC(=N)N)NC(=O)[C@H](C)NC(=O)[C@@H](N)CCCNC(=N)N)[C@@H](C)O)C(=O)N[C@@H](CO)C(=O)N[C@@H](Cc1ccccc1)C(=O)N[C@@H](C)C(=O)N[C@@H](CCC(=O)O)C(=O)N1CCC[C@H]1C(=O)NCC(=O)O; assay type: biochemical, human; settings: other: PRAK; Standard Substrate = …; 30.0 °C
Excerpt: (§1) Apart from the AMP-activated protein kinase (AMPK, a gift from Drs S. Hawley and D. G. Hardie), cGMP-dependent protein kinase (PKG, a generous gift from Drs Susan Lohmann and Ulrich Walter, University of Wurzburg, Germany) and the catalytic subunit of cyclic AMP-dependent protein kinase (PKA, a gift from Dr C. Smythe), which were isolated from rat liver, bovine lung and bovine heart, respectively, all other protein kinases were expressed as either GST-fusion or His-tagged proteins (by a person, a person, Dr A. Paterson or a person, in this Division). The expressed proteins all corresponded to the human sequences apart from the rat Rho-dependent protein kinase (ROCK-II) and rat mitogen-activated protein kinase (MAPK) activated kinase-1a (MAPKAP-K1a, also called RSK). GST-fusion proteins were purified on GSH-agarose (Amersham Pharmacia Biotech, Amersham, UK) and His-tagged proteins on Ni-NTA agarose (Qiagen) essentially according to the manufacturer's instructions. All the protein kinases used in this study are available from Upstate Biotechnology Inc. (Lake Placid, N.Y., USA), apart from the α-isoform of calmodulin-dependent protein kinase II (CaMKII), MAPKAP-K3 and PKG. […]
(§2) All protein kinase assays were linear with respect to time. […] All papers were subsequently washed a further three times in phosphoric acid, once in acetone, then dried and counted for radioactivity. […] The plates were then washed six times (five min per wash) in PBS, 0.1% Tween 20 and binding of the phospho-specific antibody detected by incubating the plates with peroxidase-conjugated anti-sheep antibodies (Pierce). […] Signals were quantitated on LAS-1000IR software (FujiFilm). […]

[2] = substrate: CC(C)C[C@H](NC(=O)[C@H](CCCNC(=N)N)NC(=O)[C@H](CCCNC(=N)N)NC(=O)[C@@H](N)CCCNC(=N)N)C(=O)N[C@@H](CO)C(=O)N[C@@H](Cc1ccccc1)C(=O)N[C@@H](C)C(=O)N[C@@H](CCC(=O)O)C(=O)N1CCC[C@H]1C(=O)NCC(=O)O; assay type: biochemical, bovine; settings: other: PKG; Standard Substrate = …; 30.0 °C
Excerpt: as §1, with “RSK).” for “RSK). GST-fusion proteins were purified on GSH-agarose (Amersham Pharmacia Biotech, Amersham, UK) and His-tagged proteins on Ni-NTA agarose (Qiagen) essentially according to the manufacturer's instructions. All the protein kinases used in this study are available from Upstate Biotechnology Inc. (Lake Placid, N.Y., USA), apart from the α-isoform of calmodulin-dependent protein kinase II (CaMKII), MAPKAP-K3 and PKG.”
as §2

[3] = substrate: CC(C)C[C@H](NC(=O)[C@H](CCCCN)NC(=O)[C@@H](N)CCCCN)C(=O)N[C@@H](CC(N)=O)C(=O)N[C@@H](CCCNC(=N)N)C(=O)N[C@H](C(=O)N[C@@H](CC(C)C)C(=O)N[C@@H](CO)C(=O)N[C@@H](Cc1ccccc1)C(=O)N[C@@H](C)C(=O)N[C@@H](CCC(=O)O)C(=O)N1CCC[C@H]1C(=O)NCC(=O)O)[C@@H](C)O; assay type: biochemical, human; settings: 30.0 °C
Excerpt: as §1, §2

B1: PRAK (Homo sapiens) (protein)
chain: MSEESDMDKAIKETSILEEYSINWTQKLGAGISGPVRVCVKKSTQERFALKILLDRPKARNEVRLHMMCATHPNIVQIIEVFANSVQFPHESSPRARLLIVMEMMEGGELFHRISQHRHFTEKQASQVTKQIALALRHCHLLNIAHRDLKPENLLFKDNSLDAPVKLCDFGFAKIDQGDLMTPQFTPYYVAPQVLEAQRRHQKEKSGIIPTSPTPYTYNKSCDLWSLGVIIYVMLCGYPPFYSKHHSRTIPKDMRRKIMTGSFEFPEEEWSQISEMAKDVVRKLLKVKPEERLTIEGVLDHPWLNSTEALDNVLPSAQLMMDKAVVAGIQQAHAEQLANMRIQDLKVSLKPLHSVNNPILRKRKLLGTKPKDSVYIHDHENGAEDSNVALEKLRDVIAQCILPQAGKGENEDEKLNEVMQEAWKYNRECKLLRDTLQSFSWNGRGFTDKVDRLKLAEIVKQVIEEQTTSHESQ
notes: made in house; host or cells: Sf21 insect cells
- Km [1]: 40 µM

B2: PKG (Bos taurus) (protein)
chain: MSELEEDFAKILMLKEERIKELEKRLSEKEEEIQELKRKLHKCQSVLPVPSTHIGPRTTRAQGISAEPQTYRSFHDLRQAFRKFTKSERSKDLIKEAILDNDFMKNLELSQIQEIVDCMYPVEYGKDSCIIKEGDVGSLVYVMEDGKVEVTKEGVKLCTMGPGKVFGELAILYNCTRTATVKTLVNVKLWAIDRQCFQTIMMRTGLIKHTEYMEFLKSVPTFQSLPEEILSKLADVLEETHYENGEYIIRQGARGDTFFIISKGKVNVTREDSPNEDPVFLRTLGKGDWFGEKALQGEDVRTANVIAAEAVTCLVIDRDSFKHLIGGLDDVSNKAYEDAEAKAKYEAEAAFFANLKLSDFNIIDTLGVGGFGRVELVQLKSEESKTFAMKILKKRHIVDTRQQEHIRSEKQIMQGAHSDFIVRLYRTFKDSKYLYMLMEACLGGELWTILRDRGSFEDSTTRFYTACVVEAFAYLHSKGIIYRDLKPENLILDHRGYAKLVDFGFAKKIGFGKKTWTFCGTPEYVAPEIILNKGHDISADYWSLGILMYELLTGSPPFSGPDPMKTYNIILRGIDMIEFPKKIAKNAANLIKKLCRDNPSERLGNLKNGVKDIQKHKWFEGFNWEGLRKGTLTPPIIPSVASPTDTSNFDSFPEDNDEPPPDDNSGWDIDF
notes: which were isolated from rat liver, bovine lung and bovine heart, respectively; from tissue; host or cells: bovine lung
- Km [2]: 50 µM

B3: S6K1 (Homo sapiens; T412E) (protein)
chain: MRRRRRRDGFYPAPDFRDREAEDMAGVFDIDLDQPEDAGSEDELEEGGQLNESMDHGGVGPYELGMEHCEKFEISETSVNRGPEKIRPECFELLRVLGKGGYGKVFQVRKVTGANTGKIFAMKVLKKAMIVRNAKDTAHTKAERNILEEVKHPFIVDLIYAFQTGGKLYLILEYLSGGELFMQLEREGIFMEDTACFYLAEISMALGHLHQKGIIYRDLKPENIMLNHQGHVKLTDFGLCKESIHDGTVTHTFCGTIEYMAPEILMRSGHNRAVDWWSLGALMYDMLTGAPPFTGENRKKTIDKILKCKLNLPPYLTQEARDLLKKLLKRNAASRLGAGPGDAGEVQAHPFFRHINWEELLARKVEPPFKPLLQSEEDVSQFDSKFTRQTPVDSPDDSTLSESANQVFLGFEYVAPSVLES
notes: as for B1
- Km ([3]; other: S6K1, Standard Substrate = LRRASLG): 6 µM

B4: SGK1 (Homo sapiens; S422D) (protein)
chain: ISQPQEPELMNANPSPPPSPSQQINLGPSSNPHAKPSDFHFLKVIGKGSFGKVLLARHKAEEVFYAVKVLQKKAILKKKEEKHIMSERNVLLKNVKHPFLVGLHFSFQTADKLYFVLDYINGGELFYHLQRERCFLEPRARFYAAEIASALGYLHSLNIVYRDLKPENILLDSQGHIVLTDFGLCKENIEHNSTTSTFCGTPEYLAPEVLHKQPYDRTVDWWCLGAVLYEMLYGLPPFYSRNTAEMYDNILNKPLQLKPNITNSARHLLEGLLQKDRTKRLGAKDDFMEIKSHVFFSLINWDDLINKKITPPFNPNVSGPNDLRHFDPEFTEEPVPNSIGKSPDSVLVTASVKEAAEAFLGFDYAPPTDSFL
notes: as for B1
- Km ([3]; other: SGK1, Standard Substrate = …): 4 µM
